Reference: the RNAGym collection of RNA variant scans (doi:10.7554/elife.80360)

B1: CPEB3 Ribozyme (parent)
chain: GGGGGCCACAGCAGAAGCGUUCACGUCGCGGCCCCUGUCAGAUUCUGGUGAAUCUGCGAAUUCUGCUGU

Variants of: B1
Experiment: self-cleavage, relative activity (ratio to wild type); higher = more cleavage; co-transcriptional

Q: Which self-cleavage does the source give for G1A C66U here?
A: 0.0966

Q: Which self-cleavage does the source give for G1C A15U here?
A: 0.229

Q: With G1U G56A as the variant, how does the self-cleavage read?
A: 0.111

Q: For G2A C22A, which self-cleavage is on record?
A: 0.0696

Q: For G1U C34U, which self-cleavage is on record?
A: 0.147

Q: With G1U C18A as the variant, how does the self-cleavage read?
A: 0.0311

Q: Which self-cleavage does the source give for G1A U61A here?
A: 0.0967

Q: For G1A U61G, which self-cleavage is on record?
A: 0.15

Q: Which self-cleavage does the source give for G1U G2U here?
A: 0.392

Q: For G1U U53C, which self-cleavage is on record?
A: 0.143

Q: For G1A A42U, which self-cleavage is on record?
A: 0.105

Q: For G1A A42C, which self-cleavage is on record?
A: 0.106

Q: For G1U G14U, which self-cleavage is on record?
A: 0.0869

Q: For G1A A10U, which self-cleavage is on record?
A: 0.0492

Q: Which self-cleavage does the source give for G1A A10G here?
A: 0.115

Q: For G2A C24A, which self-cleavage is on record?
A: 0.0565

Q: For G1C A10C, which self-cleavage is on record?
A: 0.23

Q: For G1C A10U, which self-cleavage is on record?
A: 0.209

Q: Which self-cleavage does the source give for G1A U62C here?
A: 0.033

Q: For G1A U62G, which self-cleavage is on record?
A: 0.0371

Q: Which self-cleavage does the source give for G1U U38A here?
A: 0.0964

Q: With G1A C7A as the variant, how does the self-cleavage read?
A: 0.155

Q: For G1A C7U, which self-cleavage is on record?
A: 0.0863

Q: Which self-cleavage does the source give for G1U C57A here?
A: 0.0933

Q: With G2A C7G as the variant, how does the self-cleavage read?
A: 0.063

Q: With G1U C27U as the variant, how does the self-cleavage read?
A: 0.0539

Q: Which self-cleavage does the source give for G1A G41A here?
A: 0.0513

Q: With G2A A13U as the variant, how does the self-cleavage read?
A: 0.121

Q: For G1A C54U, which self-cleavage is on record?
A: 0.0835

Q: With G1U U69C as the variant, how does the self-cleavage read?
A: 0.284

Q: For G1U A40G, which self-cleavage is on record?
A: 0.0819

Q: For G1U A40U, which self-cleavage is on record?
A: 0.0879

Q: For G1A G50C, which self-cleavage is on record?
A: 0.115

Q: With G1C U44C as the variant, how does the self-cleavage read?
A: 0.232

Q: For G1C G5A, which self-cleavage is on record?
A: 0.272

Q: Which self-cleavage does the source give for G1C G5C here?
A: 0.15

Q: For G1A A16C, which self-cleavage is on record?
A: 0.028

Q: For G1A A16U, which self-cleavage is on record?
A: 0.0347

Q: For G1C G56U, which self-cleavage is on record?
A: 0.224

Q: With G1U U20C as the variant, how does the self-cleavage read?
A: 0.068

Q: With G1U U20G as the variant, how does the self-cleavage read?
A: 0.0369

Q: Which self-cleavage does the source give for G1A C12U here?
A: 0.0887

Q: With G1U A60U as the variant, how does the self-cleavage read?
A: 0.033

Q: Which self-cleavage does the source give for G1U A60G here?
A: 0.128

Q: For G1A U44G, which self-cleavage is on record?
A: 0.0722

Q: For G1U G17C, which self-cleavage is on record?
A: 0.0433

Q: Which self-cleavage does the source give for G1U G17A here?
A: 0.0548

Q: With G1U A52C as the variant, how does the self-cleavage read?
A: 0.112

Q: For G1U C35G, which self-cleavage is on record?
A: 0.0241

Q: With G1U C39G as the variant, how does the self-cleavage read?
A: 0.103

Q: Which self-cleavage does the source give for G1C A42U here?
A: 0.2

Q: For G1C G4U, which self-cleavage is on record?
A: 0.205

Q: Which self-cleavage does the source give for G1A G3U here?
A: 0.0455

Q: With G1A G3A as the variant, how does the self-cleavage read?
A: 0.107

Q: With G1A U43C as the variant, how does the self-cleavage read?
A: 0.0436

Q: Which self-cleavage does the source give for G1A U43A here?
A: 0.0552

Q: For G1A U43G, which self-cleavage is on record?
A: 0.0723

Q: For G1C G19U, which self-cleavage is on record?
A: 0.166

Q: Which self-cleavage does the source give for G1C G19C here?
A: 0.126

Q: Which self-cleavage does the source give for G1C C63G here?
A: 0.201

Q: Which self-cleavage does the source give for G1U G25C here?
A: 0.0418

Q: Which self-cleavage does the source give for G1U G25A here?
A: 0.0632

Q: For G1U G25U, which self-cleavage is on record?
A: 0.0227

Q: Which self-cleavage does the source give for G1U C24A here?
A: 0.0939

Q: Which self-cleavage does the source give for G1U C24U here?
A: 0.0825

Q: For G1A U64C, which self-cleavage is on record?
A: 0.0762

Q: With G2A A60G as the variant, how does the self-cleavage read?
A: 0.0573

Q: With G2A A60U as the variant, how does the self-cleavage read?
A: 0.0695

Q: With G1A A40G as the variant, how does the self-cleavage read?
A: 0.0657

Q: Which self-cleavage does the source give for G1U A10C here?
A: 0.186

Q: For G1U A10G, which self-cleavage is on record?
A: 0.0897

Q: Which self-cleavage does the source give for G2A C18G here?
A: 0.0324

Q: For G2A C18A, which self-cleavage is on record?
A: 0.0515

Q: With G1C G37A as the variant, how does the self-cleavage read?
A: 0.157

Q: Which self-cleavage does the source give for G1U A23G here?
A: 0.141

Q: For G1U A23C, which self-cleavage is on record?
A: 0.171

Q: For G1C U21A, which self-cleavage is on record?
A: 0.246

Q: With G1A G17C as the variant, how does the self-cleavage read?
A: 0.0672

Q: Which self-cleavage does the source give for G1C U69G here?
A: 0.409

Q: Which self-cleavage does the source give for G1C U69C here?
A: 0.396

Q: Which self-cleavage does the source give for G1C C32G here?
A: 0.148

Q: With G1A A60G as the variant, how does the self-cleavage read?
A: 0.0623

Q: Which self-cleavage does the source give for G1A A60U here?
A: 0.107

Q: Which self-cleavage does the source give for G1C C9A here?
A: 0.251

Q: Which self-cleavage does the source give for G1C C24G here?
A: 0.118

Q: For G1C C24U, which self-cleavage is on record?
A: 0.203

Q: Which self-cleavage does the source give for G2A A16C here?
A: 0.0551

Q: For G2A A16G, which self-cleavage is on record?
A: 0.179

Q: For G1C U64G, which self-cleavage is on record?
A: 0.204

Q: For G1A G30U, which self-cleavage is on record?
A: 0.0869

Q: Which self-cleavage does the source give for G1U C45A here?
A: 0.11

Q: Which self-cleavage does the source give for G1A C22A here?
A: 0.0619

Q: Which self-cleavage does the source give for G1A C22G here?
A: 0.0704

Q: With G1C A40U as the variant, how does the self-cleavage read?
A: 0.195

Q: With G1C U20A as the variant, how does the self-cleavage read?
A: 0.0802

Q: For G1C A60U, which self-cleavage is on record?
A: 0.179

Q: For G2A A10U, which self-cleavage is on record?
A: 0.336

Q: Which self-cleavage does the source give for G1C U55G here?
A: 0.135

Q: For G1U G11U, which self-cleavage is on record?
A: 0.129

Q: For G1U G11C, which self-cleavage is on record?
A: 0.118

Q: For G1A G4U, which self-cleavage is on record?
A: 0.0804

Q: With G1U C7U as the variant, how does the self-cleavage read?
A: 0.0859

Q: With G1U G5U as the variant, how does the self-cleavage read?
A: 0.0243

Q: With G1U G5A as the variant, how does the self-cleavage read?
A: 0.101

Q: With G1C A16C as the variant, how does the self-cleavage read?
A: 0.161

Q: Which self-cleavage does the source give for G1C C22U here?
A: 0.0706

Q: Which self-cleavage does the source give for G1U U21A here?
A: 0.054

Q: For G1C U61A, which self-cleavage is on record?
A: 0.253

Q: With G1C U36G as the variant, how does the self-cleavage read?
A: 0.297

Q: For G1C G65C, which self-cleavage is on record?
A: 0.174

Q: With G1C G65A as the variant, how does the self-cleavage read?
A: 0.134

Q: For G1A U38A, which self-cleavage is on record?
A: 0.0918

Q: With G1A U38G as the variant, how does the self-cleavage read?
A: 0.0274

Q: For G1A G25U, which self-cleavage is on record?
A: 0.076

Q: With G1A G25A as the variant, how does the self-cleavage read?
A: 0.0488

Q: Which self-cleavage does the source give for G1U C12A here?
A: 0.0761

Q: With G1A C45A as the variant, how does the self-cleavage read?
A: 0.0944

Q: Which self-cleavage does the source give for G2A A15G here?
A: 0.166

Q: For G1U C54U, which self-cleavage is on record?
A: 0.136

Q: For G1A G37A, which self-cleavage is on record?
A: 0.0641

Q: With G1A C39G as the variant, how does the self-cleavage read?
A: 0.0386

Q: With G1A C39A as the variant, how does the self-cleavage read?
A: 0.0683

Q: Which self-cleavage does the source give for G1C U53C here?
A: 0.0726

Q: For G1U G58A, which self-cleavage is on record?
A: 0.0859

Q: Which self-cleavage does the source give for G1A G14U here?
A: 0.0964

Q: For G1C C66G, which self-cleavage is on record?
A: 0.248

Q: For G1C G41U, which self-cleavage is on record?
A: 0.193

Q: For G1A G48C, which self-cleavage is on record?
A: 0.142

Q: For G1A A23C, which self-cleavage is on record?
A: 0.0884

Q: For G1A A23G, which self-cleavage is on record?
A: 0.139

Q: For G1C U67G, which self-cleavage is on record?
A: 0.312

Q: With G1C A8G as the variant, how does the self-cleavage read?
A: 0.205

Q: With G1C G2C as the variant, how does the self-cleavage read?
A: 0.67

Q: With G1C G2U as the variant, how does the self-cleavage read?
A: 0.142

Q: With G1C G48C as the variant, how does the self-cleavage read?
A: 0.215

Q: Which self-cleavage does the source give for G1C G48A here?
A: 0.204

Q: Which self-cleavage does the source give for G2A A8C here?
A: 0.194

Q: Which self-cleavage does the source give for G1C G50A here?
A: 0.224

Q: Which self-cleavage does the source give for G1C G50C here?
A: 0.145

Q: Which self-cleavage does the source give for G1C G30U here?
A: 0.162

Q: With G1A U49C as the variant, how does the self-cleavage read?
A: 0.0571

Q: With G1C C29A as the variant, how does the self-cleavage read?
A: 0.168

Q: With G1A U21C as the variant, how does the self-cleavage read?
A: 0.0967

Q: Which self-cleavage does the source give for G1U A13G here?
A: 0.0953

Q: With G1U A13C as the variant, how does the self-cleavage read?
A: 0.0972

Q: Which self-cleavage does the source give for G1C U46A here?
A: 0.208

Q: For G1C U46G, which self-cleavage is on record?
A: 0.234

Q: For G1C C54A, which self-cleavage is on record?
A: 0.272

Q: With G1C C54U as the variant, how does the self-cleavage read?
A: 0.237

Q: With G1A G31U as the variant, how does the self-cleavage read?
A: 0.0837

Q: For G1C G3C, which self-cleavage is on record?
A: 0.0906

Q: Which self-cleavage does the source give for G2A C12U here?
A: 0.201

Q: For G2A C12A, which self-cleavage is on record?
A: 0.0566

Q: For G1C G28A, which self-cleavage is on record?
A: 0.102

Q: For G1A G28A, which self-cleavage is on record?
A: 0.0534

Q: For G1A C27G, which self-cleavage is on record?
A: 0.0668

Q: Which self-cleavage does the source give for G1A A8G here?
A: 0.0246

Q: For G1A A8C, which self-cleavage is on record?
A: 0.102

Q: For G1C U62C, which self-cleavage is on record?
A: 0.264

Q: For G1C A51G, which self-cleavage is on record?
A: 0.18

Q: Which self-cleavage does the source give for G1A U67A here?
A: 0.121

Q: For G1A U67G, which self-cleavage is on record?
A: 0.0812

Q: For G1A G19U, which self-cleavage is on record?
A: 0.0319

Q: For G1A G19C, which self-cleavage is on record?
A: 0.0333

Q: For G1A G19A, which self-cleavage is on record?
A: 0.0657

Q: With G1U A16G as the variant, how does the self-cleavage read?
A: 0.108

Q: With G1U A16U as the variant, how does the self-cleavage read?
A: 0.103
